Measurements reported in US9969812B2, “Anti human Notch4 antibody” (Eisai R&D Management Co., Ltd., priority 2015, dated 2018).

Molecular target: T1, Human Notch4-NRR Fusion Protein (Homo sapiens, UniProt Q99466)
T1 construct: Human Notch4-NRR domain Fc fusion proteins were expressed with a CHO cell line; Fc; made in house; host or cells: CHO cell line (antigen captured from culture supernatant)
T1 sequence (Q99466 1046-1445 limits assumed): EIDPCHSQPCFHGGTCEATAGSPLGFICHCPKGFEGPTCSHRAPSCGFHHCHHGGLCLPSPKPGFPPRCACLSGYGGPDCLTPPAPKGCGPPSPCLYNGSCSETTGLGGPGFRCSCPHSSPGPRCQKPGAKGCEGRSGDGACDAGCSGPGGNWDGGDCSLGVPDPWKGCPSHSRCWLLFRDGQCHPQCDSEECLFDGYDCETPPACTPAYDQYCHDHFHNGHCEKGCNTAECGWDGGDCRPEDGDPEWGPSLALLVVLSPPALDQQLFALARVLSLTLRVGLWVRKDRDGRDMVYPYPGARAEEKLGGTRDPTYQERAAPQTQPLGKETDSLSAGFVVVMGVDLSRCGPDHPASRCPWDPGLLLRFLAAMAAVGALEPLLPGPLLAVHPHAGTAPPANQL
Assay: Kinetic analysis, captured Human Notch4-NRR Fc fusion protein, humanized antibody injected
Type: binding
Conditions: Table 30, Human Notch4-NRR Fc fusion
Description: Kinetic analysis of further anti-Notch4 inhibitory humanized antibodies was carried out as follows. Human Notch4-NRR domain Fc fusion proteins were expressed with a CHO cell line. The antigen in the culture supernatant was captured by the anti-human Notch4 antibody fixed on a CM5 sensor chip that recognizes different epitopes of human Notch4. The humanized anti-human Notch4 antibody was then injected onto the sensor chip at various concentrations. The interaction and disassociation constants thereof were calculated according to manufacturer's instructions.
In the table below, e.g. the description “HK2L3 (Lys-)” means that the heavy chain variable region of the humanized anti-human Notch4 antibody employed in the experiment is the heavy chain variable region of the humanized anti-human Notch4 antibody heavy chain HK2 in Example 1, light chain variable region is the light chain variable region of the humanized anti-human Notch4 antibody light chain L3 in Example 1, and lysine (Lys) located at the C-terminal of the heavy chain of a common human antibody is deleted in this antibody. Those without the description “(Lys-)” mean that Lys located at the C-terminal of the heavy chain of the human antibody is not deleted.

B1: Antibody D: humanized anti-human Notch4 antibody, heavy chain variable region HK3, light chain variable region L5, C-terminal Lys deleted (antibody)
heavy: EVQLVESGGGLVQPGGSLRLSCAASGFTFSSYGMSWVRQAPGKGLELVATINSNGGRTYYPDSVKGRFTISRDNSKNTLYLQMGSLKAEDMAVYYCARDQGFAYWGQGTLVTVSSASTKGPSVFPLAPCSRSTSESTAALGCLVKDYFPEPVTVSWNSGALTSGVHTFPAVLQSSGLYSLSSVVTVPSSNFGTQTYTCNVDHKPSNTKVDKTVERKCCVECPPCPAPPAAAPSVFLFPPKPKDTLMISRTPEVTCVVVDVSHEDPEVQFNWYVDGVEVHNAKTKPREEQFNSTFRVVSVLTVVHQDWLNGKEYKCKVSNKGLPAPIEKTISKTKGQPREPQVYTLPPSREEMTKNQVSLTCLVKGFYPSDIAVEWESNGQPENNYKTTPPMLDSDGSFFLYSKLTVDKSRWQQGNVFSCSVMHEALHNHYTQKSLSLSPG
light: DIQMTQSPSSLSASVGDRVTITCKASQDVGTAVAWYQQKPGKSPKLLIYWASTRHTGVPSRFSGSGSGTDFTLTISSLQPEDVATYFCQQYSSYPWTFGQGTKVEIKRTVAAPSVFIFPPSDEQLKSGTASVVCLLNNFYPREAKVQWKVDNALQSGNSQESVTEQDSKDSTYSLSSTLTLSKADYEKHKVYACEVTHQGLSSPVTKSFNRGEC
Rmax1 (RU): 37 RU | ka: 1.82e+06 M⁻¹ s⁻¹ | kd: 0.000863 s⁻¹
